Values quoted from earlier work, collected in patent US20030219387A1, “Local delivery of agents for disruption and inhibition of bacterial biofilm for treatment of periodontal disease” (priority 2000, published 2003).

Test system: binding of cells
Conditions: iron-saturated form

B1: Lactoferrin: iron-binding salivary protein (protein, UniProt P02788 20-710, looked up)
Lactotransferrin: GRRRSVQWCAVSQPEATKCFQWQRNMRKVRGPPVSCIKRDSPIQCIQAIAENRADAVTLDGGFIYEAGLAPYKLRPVAAEVYGTERQPRTHYYAVAVVKKGGSFQLNELQGLKSCHTGLRRTAGWNVPIGTLRPFLNWTGPPEPIEAAVARFFSASCVPGADKGQFPNLCRLCAGTGENKCAFSSQEPYFSYSGAFKCLRDGAGDVAFIRESTVFEDLSDEAERDEYELLCPDNTRKPVDKFKDCHLARVPSHAVVARSVNGKEDAIWNLLRQAQEKFGKDKSPKFQLFGSPSGQKDLLFKDSAIGFSRVPPRIDSGLYLGSGYFTAIQNLRKSEEEVAARRARVVWCAVGEQELRKCNQWSGLSEGSVTCSSASTTEDCIALVLKGEADAMSLDGGYVYTAGKCGLVPVLAENYKSQQSSDPDPNCVDRPVEGYLAVAVVRRSDTSLTWNSVKGKKSCHTAVDRTAGWNIPMGLLFNQTGSCKFDEYFSQSCAPGSDPRSNLCALCIGDEQGENKCVPNSNERYYGYTGAFRCLAENAGDVAFVKDVTVLQNTDGNNNEAWAKDLKLADFALLCLDGKRKPVTEARSCHLAMAPNHAVVSRMDKVERLKQVLLHQQAKFGRNGSDCPDKFCLFQSETKNLLFNDNTECLARLHGKTTYEKYLGPQYVAGITNLKKCSTSPLLEACEFLRK
modifications: iron saturated
binding of cells: reduce binding of cells
